Test results: patent US10221439B2, “Sensors, methods and kits for detecting nicotinamide adenine dinucleotides” (Max-Planck-Gesellschaft zur Förderung der Wissenschaften …, priority 2015, dated 2019)

Assay: Titration of NAD-specific FRET sensor with NAD^+ and NADP^+
Format: binding
Experimental: In order to evaluate, that these mutations were sufficient to fully switch the specificity of the cofactor binding site of SPR from NADP(H) to NAD(H), we prepared titration experiments according to the similar procedure explained herein (example 3). The labelled sensor were diluted in buffer solution containing defined concentrations of NAD^+ and NADP^+ and measure with the fluorimeter (TECAN) (FIG. 4).

B1: SPR mutant with Asp^41 and Ala^42: initial trial SPR mutant sensor for NAD^+ (conjugate, UniProt P35270 1-261, looked up, variant A41D R42A)
Sepiapterin reductase: MEGGLGRAVCLLTGASRGFGRTLAPLLASLLSPGSVLVLSDANDEALRQLEAELGAERSGLRVVRVPADLGAEAGLQQLLGALRELPRPKGLQRLLLINNAGSLGDVSKGFVDLSDSTQVNNYWALNLTSMLCLTSSVLKAFPDSPGLNRTVVNISSLCALQPFKGWALYCAGKAARDMLFQVLALEEPNVRVLNYAPGPLDTDMQQLARETSVDPDMRKGLQELKAKGKLVDCKVSAQKLLSLLEKDEFKSGAHVDFYDK
For B1, the “affinity and specificity for NAD^+” value was “low affinity, but high specificity for NAD^+”.
